The RNAGym collection of RNA variant scans (doi:10.7554/elife.80360)

B1: Hairpin Ribozyme (parent)
chain: GUCCUCUUUCACGUGCGCGUGAAAGAGAGAAGUGAACCAGAGAAACACACGUUGUGGUAUAUUACCUGGUA

Variants of: B1
Assay: self-cleavage, relative activity (ratio to wild type); higher = more cleavage; co-transcriptional

Variant	self-cleavage
GUCCUCUUUCACGUGCGCGAGAAUGAGAGAAGUGAACCAGAGAAACACACGUUGUGGUAUAUUACCUGGUA	0.732
GUCCUCUUUCACGUGCGCGAGAAAGAGAGAAGUGAACCAGAGAAACACACGUUGUGCUAUAUUACCUGGUA	0.215
GUCCUCUUUCACGUGCGCGAGAAAGAGAGAAGUGAACCAGAGAAACACACGUUGUGAUAUAUUACCUGGUA	0.204
GUCCUCUUUCACGUGCGCGAGAAAGAGAAAAGUGAACCAGAGAAACACACGUUGUGGUAUAUUACCUGGUA	0.101
GUCCUCUUUCACGUGCGCGCGACAGAGAGAAGUGAACCAGAGAAACACACGUUGUGGUAUAUUACCUGGUA	0.648
GUCCUCUUUCACGUGCGCGCGAUAGAGAGAAGUGAACCAGAGAAACACACGUUGUGGUAUAUUACCUGGUA	0.667
GUCCUCUUUCACGUGCGCGCGAAAGCGAGAAGUGAACCAGAGAAACACACGUUGUGGUAUAUUACCUGGUA	0.329
GUCCUCUUUCACGUGCGCGAGAAAGAGAGAAGCGAACCAGAGAAACACACGUUGUGGUAUAUUACCUGGUA	0.186
GUCCUCUUUCACGUGCGCGAGAAAGAGAGAAGUGAACCAGAGAAACACUCGUUGUGGUAUAUUACCUGGUA	0.272
GUCCUCUUUCACGUGCGCGAGAAAGAGAGAAGUGAACCAGAGAAACACCCGUUGUGGUAUAUUACCUGGUA	0.131
GUCCUCUUUCACGUGCGCGAGAAAGAGAGAAGUGAACCAGAGUAACACACGUUGUGGUAUAUUACCUGGUA	0.0666
GUCCUCUUUCACGUGCGCGAGAAAGAGAGAAGUGAACCAGAGGAACACACGUUGUGGUAUAUUACCUGGUA	0.348
GUCCUCUUUCACGUGCGCGAGAAAGAGAGAAGUGAACCAGAGAAACGCACGUUGUGGUAUAUUACCUGGUA	0.185
GUCCUCUUUCACGUGCGCGAGAAAGAGAGAAGUGAACCAGAGAAACUCACGUUGUGGUAUAUUACCUGGUA	0.274
GUCCUCUUUCACGUGCGCGAGAAAGAGAGAAGUGAACCAGGGAAACACACGUUGUGGUAUAUUACCUGGUA	0.681
GUCCUCUUUCACGUGCGCUUGAAAGAGAGAAGUGAACCAGAGAAACACACGUUGUGGUAUAUUACCCGGUA	0.214
GUCCUCUUUCACGUGCGCGCGAAAGAGAGAAGUGAACCAGUGAAACACACGUUGUGGUAUAUUACCUGGUA	1.36
GUCCUCUUUCACGUGCGCGCGAAAGAGAGAAGUGAACCAGGGAAACACACGUUGUGGUAUAUUACCUGGUA	0.886
GUCCUCUUUCACGUGCGCGAGAAAGAGAGAAGUGCACCAGAGAAACACACGUUGUGGUAUAUUACCUGGUA	0.967

Variant	self-cleavage
GUCCUCUUUCACGUGCGCGAGAAAGAGAGAAGUGGACCAGAGAAACACACGUUGUGGUAUAUUACCUGGUA	0.815
GUCCUCUUUCACGUGCGCUUGAAAGAGAGAAGUGAACCAGAGAAACACACGUUGUGGUAUAUUACCUGGGA	0.79
GUCCUCUUUCACGUGCGCGCGGAAGAGAGAAGUGAACCAGAGAAACACACGUUGUGGUAUAUUACCUGGUA	0.877
GUCCUCUUUCACGUGCGCGAGAAAGCGAGAAGUGAACCAGAGAAACACACGUUGUGGUAUAUUACCUGGUA	0.394
GUCCUCUUUCACGUGCGCGAGAAAGUGAGAAGUGAACCAGAGAAACACACGUUGUGGUAUAUUACCUGGUA	0.611
GUCCUCUUUCACGUGCGCGCGAAAGAGAGAAGUGAACCAGAGAAUCACACGUUGUGGUAUAUUACCUGGUA	0.076
GUCCUCUUUCACGUGCGCGAGAAAGAGAGAAGUGAACCAGAGAAACACACGUUGUGGUAUAUUACAUGGUA	0.231
GUCCUCUUUCACGUGCGCGAGAAAGAGAGAAGUGAACCAGAGAAACACACGUUGUGGUAUAUUGCCUGGUA	0.562
GUCCUCUUUCACGUGCGCGCGAAAGAGAGUAGUGAACCAGAGAAACACACGUUGUGGUAUAUUACCUGGUA	0.0821
GUCCUCUUUCACGUGCGCGAAAAAGAGAGAAGUGAACCAGAGAAACACACGUUGUGGUAUAUUACCUGGUA	0.79
GUCCUCUUUCACGUGCGCGAUAAAGAGAGAAGUGAACCAGAGAAACACACGUUGUGGUAUAUUACCUGGUA	0.642
GUCCUCUUUCACGUGCGCGCGAAAGAGAGAAGUGAACCAGAGACACACACGUUGUGGUAUAUUACCUGGUA	0.155
GUCCUCUUUCACGUGCGCGAGAAAGAGAGAAGUGAACCAGAGAAACACACGUUGUGGUACAUUACCUGGUA	0.995
GUCCUCUUUCACGUGCGCGCGAAAGAGAGAAGUGAACCAGAGAAACACACGUUGUGGUAUCUUACCUGGUA	0.138
GUCCUCUUUCACGUGCGCGCGAAAGAGAGAAGUGAACCAGAGAAACACACGUUGUGGUAUGUUACCUGGUA	0.0608
GUCCUCUUUCACGUGCGCGAGAAAGAGAGAAAUGAACCAGAGAAACACACGUUGUGGUAUAUUACCUGGUA	0.18
GUCCUCUUUCACGUGCGCGCGAAAGAGAGAAGUGAACCCGAGAAACACACGUUGUGGUAUAUUACCUGGUA	0.562
GUCCUCUUUCACGUGCGCGCGAAAGAGAGAAGUGAACCAGAGAAACACACGUUGUGGUCUAUUACCUGGUA	0.185
GUCCUCUUUCACGUGCGCGAGAAAGAGAGCAGUGAACCAGAGAAACACACGUUGUGGUAUAUUACCUGGUA	0.253
